# Columns and labels:
# [1] = molecular target: Rabbit Integrin αvβ3 (Rabbit); assay: flow cytometry, VX7 rabbit carcinoma cells, 0.5 µg antibody per 5x10^5 cells, against isotype matched control
# [2] = molecular target: human Integrin αVβ3 (human) (UniProt P06756); assay: flow cytometry, HMVEC endothelial cells, 0.5 µg antibody per 5x10^5 cells, against isotype matched control
# Rat Integrin αvβ3 (Rat) = Rat Integrin αvβ3 (Rat) (UniProt Q8R2H2); assay: flow cytometry, RG2 rat glioma cells, 0.5 µg antibody per 5x10^5 cells, against isotype matched control
# Sequence of Rat Integrin αvβ3 (Rat) (Q8R2H2 26-787): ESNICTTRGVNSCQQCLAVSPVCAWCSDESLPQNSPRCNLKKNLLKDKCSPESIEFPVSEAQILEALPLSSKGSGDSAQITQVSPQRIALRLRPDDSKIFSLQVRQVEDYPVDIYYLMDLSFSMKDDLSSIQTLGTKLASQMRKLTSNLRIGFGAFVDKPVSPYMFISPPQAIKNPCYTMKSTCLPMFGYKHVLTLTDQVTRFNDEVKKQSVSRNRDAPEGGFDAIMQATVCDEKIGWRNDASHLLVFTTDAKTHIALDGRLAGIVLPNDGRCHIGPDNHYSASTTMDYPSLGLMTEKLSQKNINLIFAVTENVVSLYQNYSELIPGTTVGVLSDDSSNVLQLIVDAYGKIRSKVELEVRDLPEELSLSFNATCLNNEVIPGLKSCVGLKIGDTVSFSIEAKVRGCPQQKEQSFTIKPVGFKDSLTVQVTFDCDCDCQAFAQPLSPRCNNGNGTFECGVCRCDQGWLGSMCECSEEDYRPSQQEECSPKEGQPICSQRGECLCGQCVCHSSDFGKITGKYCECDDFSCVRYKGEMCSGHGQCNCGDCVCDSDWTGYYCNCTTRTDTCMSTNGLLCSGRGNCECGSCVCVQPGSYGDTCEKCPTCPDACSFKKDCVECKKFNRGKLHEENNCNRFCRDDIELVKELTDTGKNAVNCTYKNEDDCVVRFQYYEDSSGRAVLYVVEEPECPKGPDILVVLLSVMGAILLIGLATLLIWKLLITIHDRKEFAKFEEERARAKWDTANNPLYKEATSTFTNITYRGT
# [3] = molecular target: human Integrin αVβ3 (human) (UniProt P06756); assay: flow cytometry, M21 melanoma cells, 0.5 µg antibody per 5x10^5 cells, against isotype matched control
# [4] = molecular target: Hamster Integrin αvβ3 (Hamster); assay: flow cytometry, CCL-49 hamster melanoma cells, 0.5 µg antibody per 5x10^5 cells, against isotype matched control
# [5] = molecular target: Rabbit Integrin αvβ3 (Rabbit); assay: binding of 125I-labeled Vitaxin to cell lines
# [6] = molecular target: Hamster Integrin αvβ3 (Hamster); assay: binding of 125I-labeled Vitaxin to cell lines
# [7] = molecular target: Rabbit Integrin αvβ3 (Rabbit); assay: binding of 125I-labeled Vitaxin to VX7 rabbit carcinoma cells
# [8] = molecular target: Hamster Integrin αvβ3 (Hamster); assay: binding of 125I-labeled Vitaxin to CCL-49 hamster melanoma cells
# [9] = molecular target: human Integrin αVβ3 (human) (UniProt P06756); assay: binding of 125I-labeled Vitaxin to M21 human melanoma cells
# [10] = molecular target: Rabbit Integrin αvβ3 (Rabbit); assay: binding of 125I-labeled Vitaxin to RK1 rabbit kidney epithelium cells
# [11] = molecular target: human Integrin αVβ3 (human) (UniProt P06756); assay: binding of 125I-labeled Vitaxin to HUVEC primary human endothelium
# Sequence of human Integrin αVβ3 (human) (P06756 31-1048, chain 1 of 2): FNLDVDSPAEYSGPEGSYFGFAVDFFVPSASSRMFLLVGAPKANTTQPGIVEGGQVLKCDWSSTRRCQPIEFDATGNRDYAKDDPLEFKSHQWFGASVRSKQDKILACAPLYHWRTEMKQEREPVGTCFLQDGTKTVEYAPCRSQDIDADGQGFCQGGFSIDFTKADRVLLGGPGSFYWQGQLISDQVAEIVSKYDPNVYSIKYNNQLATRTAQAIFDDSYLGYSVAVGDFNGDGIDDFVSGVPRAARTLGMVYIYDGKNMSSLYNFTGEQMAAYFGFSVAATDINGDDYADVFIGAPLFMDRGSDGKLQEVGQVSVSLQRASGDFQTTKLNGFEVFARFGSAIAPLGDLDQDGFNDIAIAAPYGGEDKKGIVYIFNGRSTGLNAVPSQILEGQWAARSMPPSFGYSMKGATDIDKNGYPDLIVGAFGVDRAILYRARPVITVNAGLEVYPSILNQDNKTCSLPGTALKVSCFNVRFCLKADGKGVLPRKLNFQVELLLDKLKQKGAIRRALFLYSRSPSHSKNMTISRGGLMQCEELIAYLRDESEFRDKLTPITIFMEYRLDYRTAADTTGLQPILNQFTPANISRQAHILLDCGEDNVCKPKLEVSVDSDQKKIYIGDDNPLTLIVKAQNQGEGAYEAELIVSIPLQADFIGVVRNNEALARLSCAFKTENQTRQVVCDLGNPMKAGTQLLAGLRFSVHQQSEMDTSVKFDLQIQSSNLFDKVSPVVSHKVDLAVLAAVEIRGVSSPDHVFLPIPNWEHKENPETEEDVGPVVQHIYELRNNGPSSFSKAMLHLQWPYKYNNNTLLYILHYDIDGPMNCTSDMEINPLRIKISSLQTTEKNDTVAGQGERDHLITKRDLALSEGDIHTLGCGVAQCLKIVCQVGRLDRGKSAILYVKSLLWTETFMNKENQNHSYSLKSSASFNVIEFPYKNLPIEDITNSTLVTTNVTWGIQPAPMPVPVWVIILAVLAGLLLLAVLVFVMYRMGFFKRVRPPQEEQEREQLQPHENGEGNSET
# Sequence of human Integrin αVβ3 (human) (P05106 27-788, chain 2 of 2, further chain): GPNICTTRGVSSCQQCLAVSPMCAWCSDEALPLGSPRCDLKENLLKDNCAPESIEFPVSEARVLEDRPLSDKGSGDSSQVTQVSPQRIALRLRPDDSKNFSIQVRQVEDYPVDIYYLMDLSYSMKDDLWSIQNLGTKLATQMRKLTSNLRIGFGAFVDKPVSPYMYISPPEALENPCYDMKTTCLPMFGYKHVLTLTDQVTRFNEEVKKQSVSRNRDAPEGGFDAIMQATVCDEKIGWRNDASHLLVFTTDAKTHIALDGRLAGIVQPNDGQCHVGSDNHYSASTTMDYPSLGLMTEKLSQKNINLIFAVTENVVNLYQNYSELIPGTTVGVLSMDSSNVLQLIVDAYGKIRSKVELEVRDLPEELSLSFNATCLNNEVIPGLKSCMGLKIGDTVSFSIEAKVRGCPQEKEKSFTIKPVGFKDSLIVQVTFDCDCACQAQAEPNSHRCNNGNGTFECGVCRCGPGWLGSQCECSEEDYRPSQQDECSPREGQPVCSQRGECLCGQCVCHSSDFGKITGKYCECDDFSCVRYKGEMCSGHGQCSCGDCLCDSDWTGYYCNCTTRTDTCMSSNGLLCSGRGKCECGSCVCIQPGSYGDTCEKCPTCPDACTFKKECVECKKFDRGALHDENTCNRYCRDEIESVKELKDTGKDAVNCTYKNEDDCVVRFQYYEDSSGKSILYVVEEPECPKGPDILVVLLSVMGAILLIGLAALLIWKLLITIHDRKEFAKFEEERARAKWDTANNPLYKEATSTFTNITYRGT
Fold Increase Over Control (mean channel fluorescence) [1] [fold],Fold Increase Over Control (mean channel fluorescence) [2] [fold],Fold Increase Over Control (mean channel fluorescence) (Rat Integrin αvβ3 (Rat)) [fold],Fold Increase Over Control (mean channel fluorescence) [3] [fold],Fold Increase Over Control (mean channel fluorescence) [4] [fold],fold lower affinity than for human αvβ3 [5] [fold],fold lower affinity than for human αvβ3 [6] [fold],Binding Sites (binding sites) [7],Kd [7] [nM],Kd [8] [nM],Binding Sites (binding sites) [9],Kd [9] [nM],Binding Sites (binding sites) [10],Kd [10] [nM],Binding Sites (binding sites) [11],Kd [11] [nM],Substance
3,4.3,2.3,65,7.2,–,–,–,–,–,–,–,–,–,–,–,"LM609, mouse anti-human αVβ3 Integrin mAb (antibody)"
1,–,11,0.99,–,–,–,–,–,–,–,–,–,–,–,–,"F11, mouse anti-rat β3 mAb (antibody)"
17,8.9,0.95,73,12,4 to 10,2 to 3,160000,8.9,6.9,130000,2.2,42000,23,81000,3.3,Vitaxin® (humanized monoclonal antibody MEDI-522)
